{"source": "the supplement of paper PMC6755084", "parents": {"B1": {"name": "F1*; the commonest letter at each place (parent)", "chain": "GAGACCGCAACTGAAAAGTTGTTATCACTTGTCGTAAGACACTTTGGATGGGTTGAAGTTCTGCACGTAGAAGCAAAAGGC"}}}
{"variants_of": "B1", "experiment": "fraction ligated after 30 min (ligated reads / total reads); higher = more ligase activity", "settings": "with F1*sub RNA substrate (template-directed ligation), 42 °C", "outline": "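The ligase ribozyme variants were produced by PCR amplification of oligo-pool templates, T7 transcription and purification on gel. Their ligated and unligated forms were gel-separated, then reverse transcribed with barcoded primers before MiSeq sequencing. Core bases were filtered at a quality of ≥20, and fraction ligated per variant was ligated reads over total reads.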"}
{"variant": "A37G G55C", "fraction ligated": 0.833}
{"variant": "A37G G55T", "fraction ligated": 0.834}
{"variant": "A37G G55A", "fraction ligated": 0.846}
{"variant": "A37T G38T", "fraction ligated": 0.838}
{"variant": "A37T G38A", "fraction ligated": 0.827}
{"variant": "A37T G38C", "fraction ligated": 0.841}
{"variant": "G38A A56T", "fraction ligated": 0.808}
{"variant": "G38A A56C", "fraction ligated": 0.778}
{"variant": "G38A A56G", "fraction ligated": 0.783}
{"variant": "A39C T49A", "fraction ligated": 0.706}
{"variant": "A39C T49G", "fraction ligated": 0.737}
{"variant": "A39C T49C", "fraction ligated": 0.159}
{"variant": "A39C A56G", "fraction ligated": 0.779}
{"variant": "A39C A56T", "fraction ligated": 0.771}
{"variant": "A39C A56C", "fraction ligated": 0.746}
{"variant": "A37G G46A", "fraction ligated": 0.818}
{"variant": "A37G G46C", "fraction ligated": 0.81}
{"variant": "A37G G46T", "fraction ligated": 0.806}
{"variant": "G38T T43C", "fraction ligated": 0.814}
{"variant": "G38T T43G", "fraction ligated": 0.773}
{"variant": "G38T T43A", "fraction ligated": 0.808}
{"variant": "G38A G46T", "fraction ligated": 0.791}
{"variant": "G38A G46C", "fraction ligated": 0.792}
{"variant": "G38A G46A", "fraction ligated": 0.805}
{"variant": "A39G G47C", "fraction ligated": 0.343}
{"variant": "A39G G47T", "fraction ligated": 0.389}
{"variant": "A39G G47A", "fraction ligated": 0.795}
{"variant": "A39T", "fraction ligated": 0.833}
{"variant": "A39G", "fraction ligated": 0.839}
{"variant": "A39C", "fraction ligated": 0.832}
{"variant": "A37T G50A", "fraction ligated": 0.602}
{"variant": "A37T G50C", "fraction ligated": 0.388}
{"variant": "A37T G50T", "fraction ligated": 0.793}
{"variant": "G38C A39T", "fraction ligated": 0.806}
{"variant": "G38C A39C", "fraction ligated": 0.752}
{"variant": "G38C A39G", "fraction ligated": 0.811}
{"variant": "A37T C42T", "fraction ligated": 0.858}
{"variant": "A37T C42A", "fraction ligated": 0.85}
{"variant": "A37T C42G", "fraction ligated": 0.849}
{"variant": "G38C G50A", "fraction ligated": 0.101}
{"variant": "G38C G50T", "fraction ligated": 0.314}
{"variant": "G38C G50C", "fraction ligated": 0.0192}
{"variant": "G38T T45A", "fraction ligated": 0.783}
{"variant": "G38T T45G", "fraction ligated": 0.0535}
{"variant": "G38T T45C", "fraction ligated": 0.627}
{"variant": "A39G T45G", "fraction ligated": 0.389}
{"variant": "A39G T45C", "fraction ligated": 0.792}
{"variant": "A39G T45A", "fraction ligated": 0.784}
{"variant": "G38A", "fraction ligated": 0.844}
{"variant": "G38C", "fraction ligated": 0.825}
{"variant": "G38T", "fraction ligated": 0.852}
{"variant": "A37T T44A", "fraction ligated": 0.834}
{"variant": "A37T T44G", "fraction ligated": 0.825}
{"variant": "A37T T44C", "fraction ligated": 0.847}
{"variant": "G38T G55A", "fraction ligated": 0.823}
{"variant": "G38T G55C", "fraction ligated": 0.781}
{"variant": "G38T G55T", "fraction ligated": 0.798}
{"variant": "G38A T49C", "fraction ligated": 0.245}
{"variant": "G38A T49G", "fraction ligated": 0.785}
{"variant": "G38A T49A", "fraction ligated": 0.782}
{"variant": "A39C C40G", "fraction ligated": 0.811}
{"variant": "A39C C40A", "fraction ligated": 0.797}
{"variant": "A39C C40T", "fraction ligated": 0.784}
{"variant": "A39C T44A", "fraction ligated": 0.799}
{"variant": "A39C T44G", "fraction ligated": 0.801}
{"variant": "A39C T44C", "fraction ligated": 0.797}
{"variant": "G38C T44A", "fraction ligated": 0.845}
{"variant": "G38C T44C", "fraction ligated": 0.819}
{"variant": "G38C T44G", "fraction ligated": 0.839}
{"variant": "G38A G55C", "fraction ligated": 0.781}
{"variant": "G38A G55A", "fraction ligated": 0.838}
{"variant": "G38A G55T", "fraction ligated": 0.811}
{"variant": "A39C T43C", "fraction ligated": 0.815}
{"variant": "A39C T43G", "fraction ligated": 0.79}
{"variant": "A39C T43A", "fraction ligated": 0.822}
{"variant": "A39G C42G", "fraction ligated": 0.834}
{"variant": "A39G C42T", "fraction ligated": 0.843}
{"variant": "A39G C42A", "fraction ligated": 0.829}
{"variant": "A39C C42A", "fraction ligated": 0.842}
{"variant": "A39C C42T", "fraction ligated": 0.827}
{"variant": "A39C C42G", "fraction ligated": 0.834}
{"variant": "A39T G47T", "fraction ligated": 0.22}
{"variant": "A39T G47A", "fraction ligated": 0.759}
{"variant": "A39T G47C", "fraction ligated": 0.229}
{"variant": "G38C T43A", "fraction ligated": 0.825}
{"variant": "G38C T43C", "fraction ligated": 0.822}
{"variant": "G38C T43G", "fraction ligated": 0.812}
{"variant": "A37G G47C", "fraction ligated": 0.269}
{"variant": "A37G G47A", "fraction ligated": 0.831}
{"variant": "A37G G47T", "fraction ligated": 0.397}
{"variant": "A39G A57T", "fraction ligated": 0.829}
{"variant": "A39G A57G", "fraction ligated": 0.823}
{"variant": "A39G A57C", "fraction ligated": 0.821}
{"variant": "G38A A39T", "fraction ligated": 0.829}
{"variant": "G38A A39G", "fraction ligated": 0.854}
{"variant": "G38A A39C", "fraction ligated": 0.817}
{"variant": "A37G G38T", "fraction ligated": 0.849}
{"variant": "A37G G38A", "fraction ligated": 0.882}
{"variant": "A37G G38C", "fraction ligated": 0.828}
{"variant": "A39G C40T", "fraction ligated": 0.844}
{"variant": "A39G C40A", "fraction ligated": 0.839}
{"variant": "A39G C40G", "fraction ligated": 0.802}
{"variant": "G38C C40A", "fraction ligated": 0.811}
{"variant": "G38C C40G", "fraction ligated": 0.813}
{"variant": "G38C C40T", "fraction ligated": 0.802}
{"variant": "G38A C40G", "fraction ligated": 0.843}
{"variant": "G38A C40A", "fraction ligated": 0.83}
{"variant": "G38A C40T", "fraction ligated": 0.833}
{"variant": "G38C A48G", "fraction ligated": 0.53}
{"variant": "G38C A48T", "fraction ligated": 0.0108}
{"variant": "G38C A48C", "fraction ligated": 0.269}
{"variant": "A37T A41T", "fraction ligated": 0.815}
{"variant": "A37T A41G", "fraction ligated": 0.799}
{"variant": "A37T A41C", "fraction ligated": 0.785}
{"variant": "G38T C40G", "fraction ligated": 0.82}
{"variant": "G38T C40T", "fraction ligated": 0.805}
{"variant": "G38T C40A", "fraction ligated": 0.836}
{"variant": "G38A A57T", "fraction ligated": 0.819}
{"variant": "G38A A57G", "fraction ligated": 0.855}
{"variant": "G38A A57C", "fraction ligated": 0.825}
{"variant": "A39G G55A", "fraction ligated": 0.844}
{"variant": "A39G G55T", "fraction ligated": 0.819}
{"variant": "A39G G55C", "fraction ligated": 0.801}
{"variant": "G38A G47T", "fraction ligated": 0.324}
{"variant": "G38A G47C", "fraction ligated": 0.163}
{"variant": "G38A G47A", "fraction ligated": 0.796}
{"variant": "A39T A41T", "fraction ligated": 0.775}
{"variant": "A39T A41G", "fraction ligated": 0.769}
{"variant": "A39T A41C", "fraction ligated": 0.782}
{"variant": "G38T A57C", "fraction ligated": 0.811}
{"variant": "G38T A57G", "fraction ligated": 0.862}
{"variant": "G38T A57T", "fraction ligated": 0.812}
{"variant": "A37T", "fraction ligated": 0.853}
{"variant": "A39G A48G", "fraction ligated": 0.814}
{"variant": "A39G A48C", "fraction ligated": 0.766}
{"variant": "A39G A48T", "fraction ligated": 0.824}
{"variant": "G38T A56C", "fraction ligated": 0.745}
{"variant": "G38T A56T", "fraction ligated": 0.826}
{"variant": "G38T A56G", "fraction ligated": 0.806}
{"variant": "A37G C42G", "fraction ligated": 0.857}
{"variant": "A37G C42T", "fraction ligated": 0.857}
{"variant": "A37G C42A", "fraction ligated": 0.859}
{"variant": "G38C A41C", "fraction ligated": 0.807}
{"variant": "G38C A41T", "fraction ligated": 0.785}
{"variant": "G38C A41G", "fraction ligated": 0.793}
{"variant": "A39C T45C", "fraction ligated": 0.634}
{"variant": "A39C T45G", "fraction ligated": 0.138}
{"variant": "A39C T45A", "fraction ligated": 0.778}
{"variant": "G38T G47C", "fraction ligated": 0.114}
{"variant": "G38T G47A", "fraction ligated": 0.762}
{"variant": "G38T G47T", "fraction ligated": 0.139}
{"variant": "G38A T45G", "fraction ligated": 0.0379}
{"variant": "G38A T45C", "fraction ligated": 0.696}
{"variant": "G38A T45A", "fraction ligated": 0.773}
{"variant": "A37G T44C", "fraction ligated": 0.869}
{"variant": "A37G T44A", "fraction ligated": 0.839}
{"variant": "A37G T44G", "fraction ligated": 0.85}
{"variant": "A39C G55C", "fraction ligated": 0.695}
{"variant": "A39C G55A", "fraction ligated": 0.821}
{"variant": "A39C G55T", "fraction ligated": 0.802}
{"variant": "A37T G55C", "fraction ligated": 0.8}
{"variant": "A37T G55A", "fraction ligated": 0.862}
{"variant": "A37T G55T", "fraction ligated": 0.828}
{"variant": "A37G A57C", "fraction ligated": 0.82}
{"variant": "A37G A57T", "fraction ligated": 0.823}
{"variant": "A37G A57G", "fraction ligated": 0.859}
{"variant": "A37T A56T", "fraction ligated": 0.83}
